B1: library; numbered along this chain (parent)
chain: MRKPRAAVGSGHRKQAASQEGRQKHAKNNSQAKPSACDGLARQPEEVVLQASVSSYHLFRDVAEVTAFRGSLLSWYDQEKRDLPWRRRAEDEMDLDRRAYAVWVSEVMLQQTQVATVINYYTGWMQKWPTLQDLASASLEEVNQLWAGLGYYSRGRRLQEGARKVVEELGGHMPRTAETLQQLLPGVGRYTAGAIASIAFGQATGVVDGNVARVLCRVRAIGADPSSTLVSQQLWGLAQQLVDPARPGDFNQAAMELGATVCTPQRPLCSQCPVESLCRARQRVEQEQLLASGSLSGSPDVEECAPNTGQCHLCLPPSEPWDQTLGVVNFPRKASRKPPREESSATCVLEQPGALGAQILLVQRPNSGLLAGLWEFPSVTWEPSEQLQRKALLQELQRWAGPLPATHLRHLGEVVHTFSHIKLTYQVYGLALEGQTPVTTVPPGARWLTQEEFHTAAVSTAMKKVFRVYQGQQPGTCMGSKRSQVSSPCSRKKPRMGQQVLDNFFRSHISTDAHSLNSAAQ

Variants of: B1
Assay: 8OG:A repair function score (normalized; synonymous = 0, nonsense = -1) (normalized log-likelihood score); higher = more repair activity (WT-like)
Conditions: with 8OG:A DNA repair reporter (GFP) in HEK-293 MUTYH KO cells
Method in brief: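 Per-tile Rosace fitness scores were converted to a normalized repair function score anchored on synonymous and nonsense distributions. That scale puts synonymous medians at 0 and nonsense medians at -1. Variants with starting counts under 300 counts per million were discarded. Input came from sorting viable mCherry+ MUTYH knockout HEK-293 cells, carrying lentiviral MUTYH cDNA NNN codon-scan libraries in 10 pg/ml doxycycline and an 8OG:A GFP repair reporter, into GFP+ and GFP− bins at 72 h, three replicates per tile, followed by tile amplicon sequencing.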
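Also: cells sorted at 72 h after reporter transfection.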

Variant | 8OG:A repair function score
MRKPRAAVGSGHRKQAASQEGRQKHAKNNSQAKPSACDGLARQPEEVVLQASVSSYHLFRDVAEVTAFRGSLLSWYDQEKRDLPWRRRAEDEMDLDRRAYAVWVSEVMLQQTQVATVINYYTGWMQKWPTLQDLASASLEEVNQLWAGLGYYSRGRRLQEGARKVVEELGGHMPRTAETLQQLLPGVGRYTAGAIASIAFGQATGVVDGNVARVLCRVRPIGADPSSTLVSQQLWGLAQQLVDPARPGDFNQAAMELGATVCTPQRPLCSQCPVESLCRARQRVEQEQLLASGSLSGSPDVEECAPNTGQCHLCLPPSEPWDQTLGVVNFPRKASRKPPREESSATCVLEQPGALGAQILLVQRPNSGLLAGLWEFPSVTWEPSEQLQRKALLQELQRWAGPLPATHLRHLGEVVHTFSHIKLTYQVYGLALEGQTPVTTVPPGARWLTQEEFHTAAVSTAMKKVFRVYQGQQPGTCMGSKRSQVSSPCSRKKPRMGQQVLDNFFRSHISTDAHSLNSAAQ [A220P] | -0.978
MRKPRAAVGSGHRKQAASQEGRQKHAKNNSQAKPSACDGLARQPEEVVLQASVSSYHLFRDVAEVTAFRGSLLSWYDQEKRDLPWRRRAEDEMDLDRRAYAVWVSEVMLQQTQVATVINYYTGWMQKWPTLQDLASASLEEVNQLWAGLGYYSRGRRLQEGARKVVEELGGHMPRTAETLQQLLPGVGRYTAGAIASIAFGQATGVVDGNVARVLCRVRLIGADPSSTLVSQQLWGLAQQLVDPARPGDFNQAAMELGATVCTPQRPLCSQCPVESLCRARQRVEQEQLLASGSLSGSPDVEECAPNTGQCHLCLPPSEPWDQTLGVVNFPRKASRKPPREESSATCVLEQPGALGAQILLVQRPNSGLLAGLWEFPSVTWEPSEQLQRKALLQELQRWAGPLPATHLRHLGEVVHTFSHIKLTYQVYGLALEGQTPVTTVPPGARWLTQEEFHTAAVSTAMKKVFRVYQGQQPGTCMGSKRSQVSSPCSRKKPRMGQQVLDNFFRSHISTDAHSLNSAAQ [A220L] | -0.81
MRKPRAAVGSGHRKQAASQEGRQKHAKNNSQAKPSACDGLARQPEEVVLQASVSSYHLFRDVAEVTAFRGSLLSWYDQEKRDLPWRRRAEDEMDLDRRAYAVWVSEVMLQQTQVATVINYYTGWMQKWPTLQDLASASLEEVNQLWAGLGYYSRGRRLQEGARKVVEELGGHMPRTAETLQQLLPGVGRYTAGAIASIAFGQATGVVDGNVARVLCRVRRIGADPSSTLVSQQLWGLAQQLVDPARPGDFNQAAMELGATVCTPQRPLCSQCPVESLCRARQRVEQEQLLASGSLSGSPDVEECAPNTGQCHLCLPPSEPWDQTLGVVNFPRKASRKPPREESSATCVLEQPGALGAQILLVQRPNSGLLAGLWEFPSVTWEPSEQLQRKALLQELQRWAGPLPATHLRHLGEVVHTFSHIKLTYQVYGLALEGQTPVTTVPPGARWLTQEEFHTAAVSTAMKKVFRVYQGQQPGTCMGSKRSQVSSPCSRKKPRMGQQVLDNFFRSHISTDAHSLNSAAQ [A220R] | -0.747
MRKPRAAVGSGHRKQAASQEGRQKHAKNNSQAKPSACDGLARQPEEVVLQASVSSYHLFRDVAEVTAFRGSLLSWYDQEKRDLPWRRRAEDEMDLDRRAYAVWVSEVMLQQTQVATVINYYTGWMQKWPTLQDLASASLEEVNQLWAGLGYYSRGRRLQEGARKVVEELGGHMPRTAETLQQLLPGVGRYTAGAIASIAFGQATGVVDGNVARVLCRVRNIGADPSSTLVSQQLWGLAQQLVDPARPGDFNQAAMELGATVCTPQRPLCSQCPVESLCRARQRVEQEQLLASGSLSGSPDVEECAPNTGQCHLCLPPSEPWDQTLGVVNFPRKASRKPPREESSATCVLEQPGALGAQILLVQRPNSGLLAGLWEFPSVTWEPSEQLQRKALLQELQRWAGPLPATHLRHLGEVVHTFSHIKLTYQVYGLALEGQTPVTTVPPGARWLTQEEFHTAAVSTAMKKVFRVYQGQQPGTCMGSKRSQVSSPCSRKKPRMGQQVLDNFFRSHISTDAHSLNSAAQ [A220N] | -0.671
MRKPRAAVGSGHRKQAASQEGRQKHAKNNSQAKPSACDGLARQPEEVVLQASVSSYHLFRDVAEVTAFRGSLLSWYDQEKRDLPWRRRAEDEMDLDRRAYAVWVSEVMLQQTQVATVINYYTGWMQKWPTLQDLASASLEEVNQLWAGLGYYSRGRRLQEGARKVVEELGGHMPRTAETLQQLLPGVGRYTAGAIASIAFGQATGVVDGNVARVLCRVRKIGADPSSTLVSQQLWGLAQQLVDPARPGDFNQAAMELGATVCTPQRPLCSQCPVESLCRARQRVEQEQLLASGSLSGSPDVEECAPNTGQCHLCLPPSEPWDQTLGVVNFPRKASRKPPREESSATCVLEQPGALGAQILLVQRPNSGLLAGLWEFPSVTWEPSEQLQRKALLQELQRWAGPLPATHLRHLGEVVHTFSHIKLTYQVYGLALEGQTPVTTVPPGARWLTQEEFHTAAVSTAMKKVFRVYQGQQPGTCMGSKRSQVSSPCSRKKPRMGQQVLDNFFRSHISTDAHSLNSAAQ [A220K] | -0.891
MRKPRAAVGSGHRKQAASQEGRQKHAKNNSQAKPSACDGLARQPEEVVLQASVSSYHLFRDVAEVTAFRGSLLSWYDQEKRDLPWRRRAEDEMDLDRRAYAVWVSEVMLQQTQVATVINYYTGWMQKWPTLQDLASASLEEVNQLWAGLGYYSRGRRLQEGARKVVEELGGHMPRTAETLQQLLPGVGRYTAGAIASIAFGQATGVVDGNVARVLCRVRVIGADPSSTLVSQQLWGLAQQLVDPARPGDFNQAAMELGATVCTPQRPLCSQCPVESLCRARQRVEQEQLLASGSLSGSPDVEECAPNTGQCHLCLPPSEPWDQTLGVVNFPRKASRKPPREESSATCVLEQPGALGAQILLVQRPNSGLLAGLWEFPSVTWEPSEQLQRKALLQELQRWAGPLPATHLRHLGEVVHTFSHIKLTYQVYGLALEGQTPVTTVPPGARWLTQEEFHTAAVSTAMKKVFRVYQGQQPGTCMGSKRSQVSSPCSRKKPRMGQQVLDNFFRSHISTDAHSLNSAAQ [A220V] | -0.57

From the supplement of paper PMC11908140
